{
  "source": "paper PMC2655680",
  "about": "(Nucleic Acids Research, 2009)",
  "binders": {"B1": {"name": "XRCC1 peptide YAGpSpTDENTDSE, phosphorylated on Ser518 and Thr519 (peptide)", "peptide": "YAG[pS][pT]DENTDSE"}, "B2": {"name": "XRCC1 peptide YAGpSpTDENpTDpSE, phosphorylated on Ser518, Thr519, Thr523 and Ser525 (peptide)", "peptide": "YAG[pS][pT]DEN[pT]D[pS]E"}},
  "molecular_target": "full-length human PNK (human, UniProt Q96T60 1-521)",
  "test": "ITC",
  "note": "Non-standard residues stand in square brackets, D forms with d. No end group written: not given here. pT = C[C@@H](OP(=O)(O)O)[C@H](N)C(=O)O; pS = N[C@@H](COP(=O)(O)O)C(=O)O",
  "data": [
    {"binder": "B1", "values": [
      {"measurement": "stoichiometry N", "value": 0.61}
    ]},
    {"binder": "B2", "values": [
      {"measurement": "stoichiometry N", "value": 0.49}
    ]}
  ]
}
